Assay results as given in patent US20260242729A1.

Target: CD28 on the surface of PBMCs and T cells (human) (UniProt P10747)
Assay: flow cytometry; CD28 positive fraction after Fab-multimer magnetic selection, D-biotin release and washing; remaining CD28.3 Fab monomers detected with the α-Ig kappa mAb; live (PI-negative) CD3+ cells; right dot plot

αCD28 Fab fragment derived from the anti-human CD28 antibody CD28.3, heavy chain C-terminally fused to Twin-Strep-tag (monomeric Fab)
percentage of cells within gate: 5.91%
